This is an account of results in patent US20220064331A1 (Genentech, published 2022).

The target in experiment [1] is T1, cynomolgus monkey KLB (+N-ter FLAG) (cynomolgus monkey, UniProt Q86Z14 53-991 (human entry)).
T1 construct: expressed from KLB cDNA on HEK293T cells and read by FACS; also called Cyno KLB
T1 chain: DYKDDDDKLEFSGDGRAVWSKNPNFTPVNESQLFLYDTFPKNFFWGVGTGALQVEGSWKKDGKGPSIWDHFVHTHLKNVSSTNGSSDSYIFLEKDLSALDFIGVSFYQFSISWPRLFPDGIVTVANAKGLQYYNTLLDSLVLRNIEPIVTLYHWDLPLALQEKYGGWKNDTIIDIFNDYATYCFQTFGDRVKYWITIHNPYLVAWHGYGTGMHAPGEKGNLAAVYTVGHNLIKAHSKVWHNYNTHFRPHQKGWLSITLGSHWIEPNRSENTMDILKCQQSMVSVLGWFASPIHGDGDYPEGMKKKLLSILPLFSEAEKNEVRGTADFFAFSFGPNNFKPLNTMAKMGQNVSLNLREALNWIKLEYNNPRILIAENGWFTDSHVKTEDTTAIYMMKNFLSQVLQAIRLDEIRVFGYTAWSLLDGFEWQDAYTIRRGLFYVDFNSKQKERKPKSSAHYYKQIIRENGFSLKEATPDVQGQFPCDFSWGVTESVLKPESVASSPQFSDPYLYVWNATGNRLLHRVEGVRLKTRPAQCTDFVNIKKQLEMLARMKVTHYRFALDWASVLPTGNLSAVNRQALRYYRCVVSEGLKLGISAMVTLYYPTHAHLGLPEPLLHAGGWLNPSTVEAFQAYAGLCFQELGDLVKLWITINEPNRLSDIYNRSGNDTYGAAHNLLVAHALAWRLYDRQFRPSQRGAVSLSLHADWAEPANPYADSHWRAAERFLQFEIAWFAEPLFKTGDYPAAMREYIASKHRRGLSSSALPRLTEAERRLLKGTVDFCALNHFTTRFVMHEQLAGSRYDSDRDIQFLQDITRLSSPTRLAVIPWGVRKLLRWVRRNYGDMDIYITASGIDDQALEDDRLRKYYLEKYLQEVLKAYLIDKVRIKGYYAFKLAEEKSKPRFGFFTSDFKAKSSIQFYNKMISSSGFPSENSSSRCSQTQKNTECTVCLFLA
The experiment in a line: FACS on transfected HEK293T cells. On the procedure:
(§1) Species cross reactivity of the disclosed anti-KLB antibodies were analyzed by FACS analysis using KLB cDNA from mouse, rat, rabbit, cynomolgus monkey and rhesus monkey cloned into pRK mammalian expression vectors transiently transfected into HEK293T cells. The KLB extracellular domain polypeptide sequences that were expressed are as follows: […]

The target of experiment [2] is T2, rat KLB (+N-ter FLAG) (rat, UniProt Q99N32 53-989 (mouse entry)).
T2 construct: expressed from KLB cDNA on HEK293T cells and read by FACS
T2 chain: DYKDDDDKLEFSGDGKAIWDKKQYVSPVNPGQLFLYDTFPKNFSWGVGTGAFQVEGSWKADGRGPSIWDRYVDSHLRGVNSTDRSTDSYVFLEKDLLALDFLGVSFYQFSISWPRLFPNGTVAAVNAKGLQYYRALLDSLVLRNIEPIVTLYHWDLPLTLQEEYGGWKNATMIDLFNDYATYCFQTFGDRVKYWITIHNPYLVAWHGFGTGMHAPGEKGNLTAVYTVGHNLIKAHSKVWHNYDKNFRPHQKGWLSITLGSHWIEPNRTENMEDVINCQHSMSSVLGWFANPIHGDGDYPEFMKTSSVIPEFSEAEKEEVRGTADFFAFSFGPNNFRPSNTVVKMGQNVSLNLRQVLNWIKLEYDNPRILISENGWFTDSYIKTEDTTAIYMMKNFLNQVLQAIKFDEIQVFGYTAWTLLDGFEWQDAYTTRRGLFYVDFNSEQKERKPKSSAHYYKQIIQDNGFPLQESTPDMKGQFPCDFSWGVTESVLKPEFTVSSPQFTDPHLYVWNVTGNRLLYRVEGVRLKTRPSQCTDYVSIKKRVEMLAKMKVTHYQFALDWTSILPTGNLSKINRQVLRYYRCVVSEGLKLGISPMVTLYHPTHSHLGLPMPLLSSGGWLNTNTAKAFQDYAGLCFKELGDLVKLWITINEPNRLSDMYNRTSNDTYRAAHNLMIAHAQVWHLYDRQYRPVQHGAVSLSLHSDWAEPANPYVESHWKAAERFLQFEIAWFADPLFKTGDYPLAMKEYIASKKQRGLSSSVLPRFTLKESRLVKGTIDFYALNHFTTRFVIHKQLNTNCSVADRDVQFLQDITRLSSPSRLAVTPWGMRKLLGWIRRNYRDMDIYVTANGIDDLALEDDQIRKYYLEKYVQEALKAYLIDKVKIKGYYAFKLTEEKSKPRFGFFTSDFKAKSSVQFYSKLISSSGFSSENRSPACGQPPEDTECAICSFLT
The experiment in a line: FACS on transfected HEK293T cells. On the procedure:
as §1

Experiment [3] concerns the target T3, human KLB expressed on cells (human, UniProt Q86Z14 53-1044).
T3 construct: on transfected 293 / HEK293 cells; also called hKLB; beta-Klotho
Briefly: FACS on 293 cells expressing hKLB, antibody at 0.8 µg/ml, median shift.

The target of experiment [4] is T4, hKLB-ECD-HIS protein (human, UniProt Q86Z14 53-996).
T4 construct: recombinant hKLB-ECD-HIS protein (R&D Systems); also called recombinant KLB-ECD protein; not shown: HIS tag
The experiment in a line: ELISA on hKLB-ECD-HIS protein, chimeric IgG (murine variable, hIgG1 constant regions), OD450. The source says: In addition, some of the antibodies were ranked by ELISA. For these experiments, anti-KLB antibodies that were chimeric recombinant IgG with murine variable regions and hIgG1 constant regions were used to measure binding to hKLB-ECD-HIS protein.
A general note: ELISA stands for enzyme-linked immunosorbent assay.

B1: 14C10 (antibody, V domains shown)
VH: QVTLKESGPGILQPSQTLSLTCSFSGFSLSTSAMGIGWIRQPSGKGLEWLAHIWWDDDKRYNPALKSRLTISKDTSRNQVFLKIASVDTADTATYFCARIDGIYDGSFYAMDYWGQGTSVTVSS
VL: DIVLTQSPASLAVSLGQRATISCRASESVDSYGNSFMHWYQQKPGQPPKLLIYRASNLESGIPARFSGSGSRTDFTLTINPVEADDVANYYCQQSNEDYTFGGGTKLEIK
notes: murine hybridoma-derived anti-KLB antibody; also called KLBmAb3
B1: the binding result in experiment [1] is given as “binds”; in experiment [2], “no binding”; in experiment [3], “binds”.

B2: 12A11 (antibody, V domains shown)
VH: EVKFLESGGGLVQPGGSLRLSCAVSGIDFSRYWMSWVRQAPGKGLEWIGEISPDSSTINYTPSLKDKFVISRDNAKNTLYLQMSKVRSADTALYYCARPSPALDYWGQGTLVTVSA
VL: DIVMTQSPATLSVTPGDRVSLSCRASQSISDYVYWYQQKSHESPRLLIIYASQSISGIPSRFSGSGSGSDFTLSINSVEPEDVGVYYCQNGHNFPYTFGGGTKLEIK
notes: murine hybridoma-derived anti-KLB antibody; also called KLBmAb2
Turning to B2, the figures for the binding result in experiment [1], in experiment [2] and in experiment [3] were “binds”, “no binding” and “binds”, respectively.

B3: 12B8 (antibody, V domains shown)
VH: QIQLVQSGPELKKPGETAKISCKASGYAFSNYGMNWVKQAPGKDLKWMGWIDTDTGEATYTDDFKGRFVFSLETSASTAYLQINNLKNEDMATYFCAREEYGLFGFPYWGHGTLVTVSA
VL: DIQMTQSSSSFSVSLGDRVTITCKASEDIYNRLAWYQQKPGSAPRLLISAATSLETGVPSRFSGSGSGKDYTLSITSLQTEDVATYYCQQYWSNPLTFGAGTKLEIK
notes: murine hybridoma-derived anti-KLB antibody
For the molecule B3, the binding result is “binds” in experiment [1], “no binding” in experiment [2] and “binds” in experiment [3].

B4: 8E1 (antibody, V domains shown)
VH: EVQLQQSGAELVKPGASVKLSCTAADFNIKDTYMHWVKQRPEQGLEWIGRIDPSNGNAKYDPKFQGKASITADSSSNTAYLHLSSLTSEDTAVYYCASRALGNGYALGYWGQGTSVTVSS
VL: DIQMTQSSSYLSVSLGGSVTITCKASDHINNWLAWYQQKPGNAPRLLIYGTTNLETGVPSRFSGSGSGRDYILSITSLQSEDVASYYCQQYWNTPFTFGSGTKLEIK
notes: as for B3
In the case of B4, the binding result in experiment [1] was “binds”; in experiment [2], “no binding”; in experiment [3] it was “binds”; in experiment [4], “binds”.

B5: 25F7 (antibody, V domains shown)
VH: EVQLQQSGAELLKPGASVRLSCTASGFNIQDTFTHWVRQRPEQGLEWIGRIDPSNGNTKYDPKFQGKAKILADTSSNTAYLQLIGLTSEDTAVYYCASRALGNGYAMDYWGQGTSVTVSS
VL: DIQMTQSSSYLSVSLGGRVTITCKASDHINNWLAWYQQKPGNAPRLLISGASNLETGIPSRFSGSGSGKDYTLTITSLQTEDVATYYCQQYWNTPFTFGSGTKLEIK
notes: as for B3
For B5, the binding result in experiment [1] was “binds”; in experiment [2], “no binding”; in experiment [3], “binds”.

B6: 14C6 (antibody, V domains shown)
VH: QIQLQQSGAELMKPGASVRMSCKASGYTFSSYWIEWVKQRSGHGLEWIGEIFPGGGSTIYNENFRDKATFTADTSSNTAYMQLSSLTSEDSAVYFCARRGYYDAAWFDYWGQGTLVTVSA
VL: QIVLTQSPAIMSASPGERVTLTCSASSSLSSSYLYWYQQKPGSSPKLWIYGASNLASGVPGRFSGSGSGTSYSLTISSMEAEDAASYFCHQWSSYPLTFGSGTKLELK
notes: as for B3
Regarding B6, the binding result in experiment [1], in experiment [2] and in experiment [3] was “binds” in each case.

B7: 11D4 (antibody, V domains shown)
VH: QVQVKESGPGLVAPSQSLSITCTVSGFSLTNYGVSWIRQPPGKGLEWLGVIWGDGSINYHSALISRLTITKDNSKSQVFLKLNSLEADDTATYYCAKTHDWFDYWGQGTLVTVSA
VL: DIQMTQTPSSLSASLGDRVTINCRASQDISNYFNWYQQKPNGTIKLLIYYTSRLQSGVPSRFSGSGSGTDYSLTISNLEQEDKATYFCHQVRTLPWTFGGGTKLEIK
notes: murine hybridoma-derived anti-KLB antibody; also called KLBmAb5
Turning to B7, the binding result in experiment [1] is given as “binds”; in experiment [2] it was “no binding”; in experiment [3], “binds”.

B8: 6C1 (antibody, V domains shown)
VH: QVQLQQSGDELMKPGASVKISCKVTGNTFSSYWIEWVKQRPGHGLEWIGEILPGSDSTKYVEKFKVKATFTADTSSNTAYMQLSSLTSEDSAVYYCARGGYHYPGWLVYWGQGTLVTVSA
VL: DIVMTQSQKFMSTSVGDRVSVTCKASQNVDSYVAWYQQKAGQSPKPLIYSASYRFSGVPDRFTGSGSGTEFTLTISNVQSEDLAEYFCQQYNISPYTFGGGTKLEIK
notes: murine hybridoma-derived anti-KLB antibody; also called KLBmAb4
Turning to B8, the binding result in experiment [1] was “binds”; in experiment [2] it was “no binding”; in experiment [3], “binds”.

B9: 5F8 (antibody, V domains shown)
VH: EVQLQQSGTELVRPGASVKLSCTSSDFNIKDTYIHWVKQRPEQGLDWLGRIDPANGNTKYDPKFQGKAAMTSDTSSNTAYLRLSSLTSEDTAVYYCASSGNYGAMDYWGQGTSVTVSS
VL: ESVLTQSPALMSASLGEKVTMTCRASSSVNHMYWYQQKSDASPKLWIYYTSTLAPGVPARFSGSGSGNSYSLTISSMEGEDAATYYCQQFTISPSMYTFGGGTKLEIK
notes: as for B3
B9: the binding result in experiment [1] is “binds”; in experiment [2], “no binding”; in experiment [3], “binds”.

B10: 24A1 (antibody, V domains shown)
VH: QVQLKQSGAELVRPGTSVTLSCKASGYTFTDYEMHWMKQTPVYGLEWIGAIWPENADSVYNQKFKGKVTLTADKSSSTAYMDLRSLTSEDSAVYYCTREGGNYWGQGTTLTVSS
VL: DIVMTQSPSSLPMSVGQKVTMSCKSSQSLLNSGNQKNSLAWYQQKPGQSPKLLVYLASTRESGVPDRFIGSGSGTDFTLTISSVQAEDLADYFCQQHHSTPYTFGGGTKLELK
notes: as for B3
For B10, the binding result in experiment [1], in experiment [2] and in experiment [3] was “binds” in each case.

B11: 8H7 (antibody, V domains shown)
VH: QVQLQQPGAEIVKPGASVRLSCKASGYSFTSYWIHWVKQRPGQGLEWIGEIDPSVSNSNYNQKFKGKATLTADKSSSTAYMQLSGLTSEDSAVYFCVRLGVMVYGSSPFWFAYWGQGTLVTVSA
VL: DIVMTQSQKFMSTSVGDRVSITCKASQFVSDAVAWYQQKPGQSPKLLICSASYRYTGVPDRFTGSGSGTDFTFTISSVRTEDLAVYYCQQHYIVPYTFGGGTTLEIE
notes: as for B3
Regarding B11, the binding result in experiment [1] is reported as “binds”; in experiment [2], “no binding”; in experiment [3], “binds”.
